This is an account of results in article PMC5992710.

In general, stoichiometry N refers to the number of molecules, sites or subunits per partner or assembly.

Assay [1] concerns the target recombinant 0076 protein (ferritin encoded by mycma_0076) from Mycobacterium abscessus subsp. massiliense GO06 (Mycobacterium abscessus subsp. massiliense GO06). The assay can be described thus: dynamic light scattering; r0076 1 mg/ml in 50 mM NaH2PO4 pH 8.0, 50 mM NaCl; RH converted to mass assuming a spherical particle; 20 to 90°C.
The target is the same in assay [2]. The assay can be described thus: SEC; Superdex 200 10/300 GL, 50 mM NaH2PO4 pH 8.0, 300 mM NaCl, 1 ml/min, calibrated with molecular weight standards; apparent mass. Background: In gel filtration, larger molecules generally elute earlier.

On to “recombinant 0076 protein (ferritin encoded by mycma_0076) from Mycobacterium abscessus subsp. massiliense GO06 (natural protein)”, for which the stoichiometry N in assay [1] and in assay [2] was 24 subunits in each case.
